Measured values: patent US20140087995A1 (published 2014)
Numbered stars: 1 amine (or outer) side, 2 acyl side, 3 side chain; on linkers, the order of the positions; unused ones are H or OH. Bridge positions count the residues as written; N and C are the ends. Side chains are listed from the residue outwards. Ends that are not written are not given here. * marks the point of attachment. C20 diacid = O=C(O)CCCCCCCCCCCCCCCCCCC(=O)*; γGlu = O=C(O)[C@H](CCC(=O)[*:2])N[*:1]; AEEA = NCCOCCOCC(=O)O

T1: human calcitonin receptor (human, UniProt P30988 25-474)
T1 sequence (looked up): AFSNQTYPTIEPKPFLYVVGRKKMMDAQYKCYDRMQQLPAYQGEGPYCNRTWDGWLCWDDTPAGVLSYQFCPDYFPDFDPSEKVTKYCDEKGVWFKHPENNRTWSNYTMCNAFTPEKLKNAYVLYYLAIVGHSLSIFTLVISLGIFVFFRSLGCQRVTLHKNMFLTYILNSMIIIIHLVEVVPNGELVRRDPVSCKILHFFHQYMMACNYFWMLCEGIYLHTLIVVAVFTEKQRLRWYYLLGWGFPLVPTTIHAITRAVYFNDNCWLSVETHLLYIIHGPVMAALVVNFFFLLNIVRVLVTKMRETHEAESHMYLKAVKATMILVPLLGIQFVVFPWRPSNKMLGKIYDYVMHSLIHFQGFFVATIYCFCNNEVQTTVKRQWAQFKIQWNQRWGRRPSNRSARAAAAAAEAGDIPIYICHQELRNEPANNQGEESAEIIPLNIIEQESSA

B1: N^ε1-[2-[2-[2-[[(4S)-4-carboxy-4-(19-carboxynonadecanoylamino)butanoyl]amino]ethoxy]ethoxy]acetyl]-[His14,Arg17,Pro21,Pro27,His34]-h-amylin (peptide)
peptide: K([AEEA-γGlu-C20 diacid])CNTATCATQRLAHFLRHSSPNFGAIPSSTNVGHNTY-NH2
modifications: disulfide 2-7; N-terminus assumed
SMILES: CC[C@H](C)[C@H](NC(=O)[C@H](C)NC(=O)CNC(=O)[C@H](Cc1ccccc1)NC(=O)[C@H](CC(N)=O)NC(=O)[C@@H]1CCCN1C(=O)[C@H](CO)NC(=O)[C@H](CO)NC(=O)[C@H](Cc1c[nH]cn1)NC(=O)[C@H](CCCNC(=N)N)NC(=O)[C@H](CC(C)C)NC(=O)[C@H](Cc1ccccc1)NC(=O)[C@H](Cc1c[nH]cn1)NC(=O)[C@H](C)NC(=O)[C@H](CC(C)C)NC(=O)[C@H](CCCNC(=N)N)NC(=O)[C@H](CCC(N)=O)NC(=O)[C@@H](NC(=O)[C@H](C)NC(=O)[C@@H]1CSSC[C@H](NC(=O)[C@@H](N)CCCCNC(=O)COCCOCCNC(=O)CC[C@H](NC(=O)CCCCCCCCCCCCCCCCCCC(=O)O)C(=O)O)C(=O)N[C@@H](CC(N)=O)C(=O)N[C@@H]([C@@H](C)O)C(=O)N[C@@H](C)C(=O)N[C@@H]([C@@H](C)O)C(=O)N1)[C@@H](C)O)C(=O)N1CCC[C@H]1C(=O)N[C@@H](CO)C(=O)N[C@@H](CO)C(=O)N[C@H](C(=O)N[C@@H](CC(N)=O)C(=O)N[C@H](C(=O)NCC(=O)N[C@@H](Cc1c[nH]cn1)C(=O)N[C@@H](CC(N)=O)C(=O)N[C@H](C(=O)N[C@@H](Cc1ccc(O)cc1)C(N)=O)[C@@H](C)O)C(C)C)[C@@H](C)O
notes: also called compound 80
B2: N^ε1-[2-[2-[2-[[(4S)-4-carboxy-4-(19-carboxynonadecanoylamino)butanoyl]amino]ethoxy]ethoxy]acetyl]-[His14,Arg17,Pro21,Pro27,Pro31]-h-amylin (peptide)
peptide: K([AEEA-γGlu-C20 diacid])CNTATCATQRLAHFLRHSSPNFGAIPSSTPVGSNTY-NH2
modifications: disulfide 2-7; N-terminus assumed
SMILES: CC[C@H](C)[C@H](NC(=O)[C@H](C)NC(=O)CNC(=O)[C@H](Cc1ccccc1)NC(=O)[C@H](CC(N)=O)NC(=O)[C@@H]1CCCN1C(=O)[C@H](CO)NC(=O)[C@H](CO)NC(=O)[C@H](Cc1c[nH]cn1)NC(=O)[C@H](CCCNC(=N)N)NC(=O)[C@H](CC(C)C)NC(=O)[C@H](Cc1ccccc1)NC(=O)[C@H](Cc1c[nH]cn1)NC(=O)[C@H](C)NC(=O)[C@H](CC(C)C)NC(=O)[C@H](CCCNC(=N)N)NC(=O)[C@H](CCC(N)=O)NC(=O)[C@@H](NC(=O)[C@H](C)NC(=O)[C@@H]1CSSC[C@H](NC(=O)[C@@H](N)CCCCNC(=O)COCCOCCNC(=O)CC[C@H](NC(=O)CCCCCCCCCCCCCCCCCCC(=O)O)C(=O)O)C(=O)N[C@@H](CC(N)=O)C(=O)N[C@@H]([C@@H](C)O)C(=O)N[C@@H](C)C(=O)N[C@@H]([C@@H](C)O)C(=O)N1)[C@@H](C)O)C(=O)N1CCC[C@H]1C(=O)N[C@@H](CO)C(=O)N[C@@H](CO)C(=O)N[C@H](C(=O)N1CCC[C@H]1C(=O)N[C@H](C(=O)NCC(=O)N[C@@H](CO)C(=O)N[C@@H](CC(N)=O)C(=O)N[C@H](C(=O)N[C@@H](Cc1ccc(O)cc1)C(N)=O)[C@@H](C)O)C(C)C)[C@@H](C)O
notes: also called compound 61
B3: N^ε1-[2-[2-[2-[[(4S)-4-carboxy-4-(19-carboxynonadecanoylamino)butanoyl]amino]ethoxy]ethoxy]acetyl]-[Lys14,Arg17,Pro21,Pro27,Pro31]-h-amylin (peptide)
peptide: K([AEEA-γGlu-C20 diacid])CNTATCATQRLAKFLRHSSPNFGAIPSSTPVGSNTY-NH2
modifications: disulfide 2-7; N-terminus assumed
SMILES: CC[C@H](C)[C@H](NC(=O)[C@H](C)NC(=O)CNC(=O)[C@H](Cc1ccccc1)NC(=O)[C@H](CC(N)=O)NC(=O)[C@@H]1CCCN1C(=O)[C@H](CO)NC(=O)[C@H](CO)NC(=O)[C@H](Cc1c[nH]cn1)NC(=O)[C@H](CCCNC(=N)N)NC(=O)[C@H](CC(C)C)NC(=O)[C@H](Cc1ccccc1)NC(=O)[C@H](CCCCN)NC(=O)[C@H](C)NC(=O)[C@H](CC(C)C)NC(=O)[C@H](CCCNC(=N)N)NC(=O)[C@H](CCC(N)=O)NC(=O)[C@@H](NC(=O)[C@H](C)NC(=O)[C@@H]1CSSC[C@H](NC(=O)[C@@H](N)CCCCNC(=O)COCCOCCNC(=O)CC[C@H](NC(=O)CCCCCCCCCCCCCCCCCCC(=O)O)C(=O)O)C(=O)N[C@@H](CC(N)=O)C(=O)N[C@@H]([C@@H](C)O)C(=O)N[C@@H](C)C(=O)N[C@@H]([C@@H](C)O)C(=O)N1)[C@@H](C)O)C(=O)N1CCC[C@H]1C(=O)N[C@@H](CO)C(=O)N[C@@H](CO)C(=O)N[C@H](C(=O)N1CCC[C@H]1C(=O)N[C@H](C(=O)NCC(=O)N[C@@H](CO)C(=O)N[C@@H](CC(N)=O)C(=O)N[C@H](C(=O)N[C@@H](Cc1ccc(O)cc1)C(N)=O)[C@@H](C)O)C(C)C)[C@@H](C)O
notes: also called compound 74
B4: N^ε1-[2-[2-[2-[[(4S)-4-carboxy-4-(19-carboxynonadecanoylamino)butanoyl]amino]ethoxy]ethoxy]acetyl]-[Ser14,Arg17,Pro21,Pro27,Pro31]-h-amylin (peptide)
peptide: K([AEEA-γGlu-C20 diacid])CNTATCATQRLASFLRHSSPNFGAIPSSTPVGSNTY-NH2
modifications: disulfide 2-7; N-terminus assumed
SMILES: CC[C@H](C)[C@H](NC(=O)[C@H](C)NC(=O)CNC(=O)[C@H](Cc1ccccc1)NC(=O)[C@H](CC(N)=O)NC(=O)[C@@H]1CCCN1C(=O)[C@H](CO)NC(=O)[C@H](CO)NC(=O)[C@H](Cc1c[nH]cn1)NC(=O)[C@H](CCCNC(=N)N)NC(=O)[C@H](CC(C)C)NC(=O)[C@H](Cc1ccccc1)NC(=O)[C@H](CO)NC(=O)[C@H](C)NC(=O)[C@H](CC(C)C)NC(=O)[C@H](CCCNC(=N)N)NC(=O)[C@H](CCC(N)=O)NC(=O)[C@@H](NC(=O)[C@H](C)NC(=O)[C@@H]1CSSC[C@H](NC(=O)[C@@H](N)CCCCNC(=O)COCCOCCNC(=O)CC[C@H](NC(=O)CCCCCCCCCCCCCCCCCCC(=O)O)C(=O)O)C(=O)N[C@@H](CC(N)=O)C(=O)N[C@@H]([C@@H](C)O)C(=O)N[C@@H](C)C(=O)N[C@@H]([C@@H](C)O)C(=O)N1)[C@@H](C)O)C(=O)N1CCC[C@H]1C(=O)N[C@@H](CO)C(=O)N[C@@H](CO)C(=O)N[C@H](C(=O)N1CCC[C@H]1C(=O)N[C@H](C(=O)NCC(=O)N[C@@H](CO)C(=O)N[C@@H](CC(N)=O)C(=O)N[C@H](C(=O)N[C@@H](Cc1ccc(O)cc1)C(N)=O)[C@@H](C)O)C(C)C)[C@@H](C)O
notes: also called compound 73
B5: N^ε1-[2-[2-[2-[[(4S)-4-carboxy-4-(19-carboxynonadecanoylamino)butanoyl]amino]ethoxy]ethoxy]acetyl]-[Thr14,Arg17,Pro21,Pro27,Pro31]-h-amylin (peptide)
peptide: K([AEEA-γGlu-C20 diacid])CNTATCATQRLATFLRHSSPNFGAIPSSTPVGSNTY-NH2
modifications: disulfide 2-7; N-terminus assumed
SMILES: CC[C@H](C)[C@H](NC(=O)[C@H](C)NC(=O)CNC(=O)[C@H](Cc1ccccc1)NC(=O)[C@H](CC(N)=O)NC(=O)[C@@H]1CCCN1C(=O)[C@H](CO)NC(=O)[C@H](CO)NC(=O)[C@H](Cc1c[nH]cn1)NC(=O)[C@H](CCCNC(=N)N)NC(=O)[C@H](CC(C)C)NC(=O)[C@H](Cc1ccccc1)NC(=O)[C@@H](NC(=O)[C@H](C)NC(=O)[C@H](CC(C)C)NC(=O)[C@H](CCCNC(=N)N)NC(=O)[C@H](CCC(N)=O)NC(=O)[C@@H](NC(=O)[C@H](C)NC(=O)[C@@H]1CSSC[C@H](NC(=O)[C@@H](N)CCCCNC(=O)COCCOCCNC(=O)CC[C@H](NC(=O)CCCCCCCCCCCCCCCCCCC(=O)O)C(=O)O)C(=O)N[C@@H](CC(N)=O)C(=O)N[C@@H]([C@@H](C)O)C(=O)N[C@@H](C)C(=O)N[C@@H]([C@@H](C)O)C(=O)N1)[C@@H](C)O)[C@@H](C)O)C(=O)N1CCC[C@H]1C(=O)N[C@@H](CO)C(=O)N[C@@H](CO)C(=O)N[C@H](C(=O)N1CCC[C@H]1C(=O)N[C@H](C(=O)NCC(=O)N[C@@H](CO)C(=O)N[C@@H](CC(N)=O)C(=O)N[C@H](C(=O)N[C@@H](Cc1ccc(O)cc1)C(N)=O)[C@@H](C)O)C(C)C)[C@@H](C)O
notes: also called compound 75
B6: N^ε1-[2-[2-[2-[[(4S)-4-carboxy-4-(19-carboxynonadecanoylamino)butanoyl]amino]ethoxy]ethoxy]acetyl]-[His14,Arg17,Pro21,Pro27,Pro34]-h-amylin (peptide)
peptide: K([AEEA-γGlu-C20 diacid])CNTATCATQRLAHFLRHSSPNFGAIPSSTNVGPNTY-NH2
modifications: disulfide 2-7; N-terminus assumed
SMILES: CC[C@H](C)[C@H](NC(=O)[C@H](C)NC(=O)CNC(=O)[C@H](Cc1ccccc1)NC(=O)[C@H](CC(N)=O)NC(=O)[C@@H]1CCCN1C(=O)[C@H](CO)NC(=O)[C@H](CO)NC(=O)[C@H](Cc1c[nH]cn1)NC(=O)[C@H](CCCNC(=N)N)NC(=O)[C@H](CC(C)C)NC(=O)[C@H](Cc1ccccc1)NC(=O)[C@H](Cc1c[nH]cn1)NC(=O)[C@H](C)NC(=O)[C@H](CC(C)C)NC(=O)[C@H](CCCNC(=N)N)NC(=O)[C@H](CCC(N)=O)NC(=O)[C@@H](NC(=O)[C@H](C)NC(=O)[C@@H]1CSSC[C@H](NC(=O)[C@@H](N)CCCCNC(=O)COCCOCCNC(=O)CC[C@H](NC(=O)CCCCCCCCCCCCCCCCCCC(=O)O)C(=O)O)C(=O)N[C@@H](CC(N)=O)C(=O)N[C@@H]([C@@H](C)O)C(=O)N[C@@H](C)C(=O)N[C@@H]([C@@H](C)O)C(=O)N1)[C@@H](C)O)C(=O)N1CCC[C@H]1C(=O)N[C@@H](CO)C(=O)N[C@@H](CO)C(=O)N[C@H](C(=O)N[C@@H](CC(N)=O)C(=O)N[C@H](C(=O)NCC(=O)N1CCC[C@H]1C(=O)N[C@@H](CC(N)=O)C(=O)N[C@H](C(=O)N[C@@H](Cc1ccc(O)cc1)C(N)=O)[C@@H](C)O)C(C)C)[C@@H](C)O
notes: also called compound 68

target: T1, human calcitonin receptor; experiment: cell-based or functional assay

hCTR funct. EC50 [pM] | Binder
2140 | B1
554 | B2
37500 | B3
961 | B4
9070 | B5
932 | B6
